According to patent US20040157296A1 (HESKA, published 2004):

Target: T1, Human CTLA4 Fc chimeric protein (human, UniProt P16410 37-162, limits assumed)
T1 construct: Bought from R&D Systems; Used at about 20 ug/ml; also called recombinant CTLA4 protein; not shown: human IgG Fc (detected with mouse anti human IgG Fc FITC)
T1 sequence (looked up): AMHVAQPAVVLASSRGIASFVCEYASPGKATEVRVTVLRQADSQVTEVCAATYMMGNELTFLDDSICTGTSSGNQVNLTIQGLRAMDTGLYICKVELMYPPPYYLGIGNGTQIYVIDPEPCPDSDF
Assay: flow cytometry on L cell transfectants
Procedure: Recombinant cells L-pCMV-nFeB7-2₉₉₉, and L-pCMV-nFeB7-1₈₇₉, produced as described in Example 8, were tested for surface expression of feline B7-1 or B7-2 by determining if human CTLA4 will bind. Briefly, 1×10⁵ (per condition) L-pCMV-nFeB7-2₉₉₉ or L-pCMV-nFeB7-1₈₇₉ cells or, as a negative control, L cells transfected with the empty pCMV vector and the PMLBKTK plasmid (L-CMV) were incubated in phosphate buffered saline (PBS) containing 30% fetal bovine serum (FBS) for about 30 min on ice. The cells were then spun down and treated with the following:
Human CTLA4 Fc chimeric protein, available from R&D systems, Minneapolis, Minn., was used at about 20 μg/ml. Mouse anti human IgG Fe FITC, available from Sigma, was used at about 65 μg/ml. These reagents were diluted in PBS/5% FBS. All incubations were performed in about 100 μl for about 1 hr on ice with 3 washes of PBS/5% FBS in between each incubation. Cells were then analyzed on a flow cytometer (MoFlow Desk Top System, Cytomation, Ft Collins, Colo.) with the fluorescein gate set at 10¹.

binding result: binds
B1: feline B7-2 protein expressed on L-pCMV-nFeB7-2999 recombinant L cells (PFeB7-2332) (ligand)
chain: VSSMKSQAYFNKTGELPCHFTNSQNISLDELVVFWQDQDKLVLYEIFRGKENPQNVHLKYKGRTSFDKDNWTLRLHNVQIKDKGTYHCFIHYKGPKGLVPMHQMSSDLSVLANFSQPEITVTSNRTENSGIINLTCSSIQGYPEPKEMYFQLNTENSTTKYDTVMKKSQNNVTELYNVSISLPFSVPEAHNVSVFCALKLETLEMLLSLPFNIDAQPKDKDPEQGHFLWIAAVLVMFVVFCGMVSFKTLRKRKKKQPGPSHECETIKRERKESKQTNERVPYHVPERSDEAQCINILKTASGDKSTTHF
notes: also called PFeB7-2309 (mature)
